From IntAct's records for PubMed 40088780

Target: tor1a_human TOR1A (UniProt O14656)

Substance: Torsin-1A-interacting protein 2 (Homo sapiens), Q8NFQ8 R412G
- effect of a mutation on the interaction: decreasing interaction strength
